Experiments:
[1] = system: Helicobacter pylori (26695 strain); test: Inhibition zone analysis of photodynamic antibacterial effect by laser intensity; type: cell-based; details: 50.0 μg/ml based on Pheoa
[2] = system: Helicobacter pylori (SS1 strain); test: Antibacterial activity in vitro by concentration, CFU assay, laser 10.0 J/cm^2; type: cell-based; details: for concentration at which colonies hardly appear / did not appear / Helicobacter pylori no longer grows / concentration from which the number of Helicobacter pylori colonies decreases: concentration based on the photosensitizer; for concentration at which colonies hardly appear / did not appear / Helicobacter pylori no longer grows / concentration from which the number of Helicobacter pylori colonies decreases / colony result value compared to the NC group at 50.0 μg/ml: laser 10.0 J/cm^2; for colony result value compared to the NC group at 50.0 μg/ml: 50.0 μg/ml free photosensitizer
[3] = system: Helicobacter pylori SS1 strain; test: Confocal microscopy: interaction with and inactivation of Helicobacter pylori SS1 strain; type: cell-based
Description: (§1) Then, it was redispersed with D.W and the above process was repeated twice.
as §1

[4] = system: AGS cells
Experimental: AGS cells were dispensed into each well by 1 ml at a concentration of 2×10^4 cells/well in a 24-well plate and cultured at 37° C. and 5% CO2 for 24 hours.
After the reaction, the laser was irradiated in the range of 0-4.0 J/cm^2 using a laser of 50 mW intensity, and the MTT assay was performed to calculate the cell viability compared with the control.

[5] = system: AGS cells; test: Cellular uptake in AGS cells (pheophorbide a fluorescence intensity); type: cell-based, human; details: 30 minutes at 36° C., equal concentration based on pheophorbide a
Experimental: After incubation, it was washed twice with DPBS, treated with trypsin and cells were collected and centrifuged (1500 rpm, 3 minutes) to remove the supernatant.

## 3′-Sialyllactose-PEG-Pheophorbide a [3SL-PEG-Pheoa]
[1]; 100 mW laser
  inhibition zone at laser intensities of 30, 40, and 50 J/cm^2: inhibition zone was also identified
[1]; 100 mW laser, read two days later
  inhibition zone at 10.0 J/cm^2 laser: inhibition zone in which Helicobacter pylori does not grow was confirmed
[1]; comparative group, laser not irradiated
  inhibition zone without laser irradiation: no inhibition zone was found

## 3′-Sialyllactose-Pullulan-Pheophorbide a [Example 3SL-PU-Pheoa]
[2]; 20.0 μg/ml based on Pheoa, laser 10.0 J/cm^2, decreased from 1×10^5 CFU/ml
  number of Helicobacter pylori colonies at 20.0 μg/ml: 5×10^3 CFU/ml
[2]
  concentration at which colonies hardly appear / did not appear / Helicobacter pylori no longer grows: ≥ 50000 ng/mL

## 3′-sialyllactose-chitosan-pheophorbide a [3SL-Chitosan-Pheoa]
[2]
  concentration at which colonies hardly appear / did not appear / Helicobacter pylori no longer grows: 25000 ng/mL
  concentration from which the number of Helicobacter pylori colonies decreases: 10000 ng/mL

## butyl-poly(3SL-lysine)10-Ce6
[2]
  concentration at which colonies hardly appear / did not appear / Helicobacter pylori no longer grows: 1000 ng/mL
  concentration from which the number of Helicobacter pylori colonies decreases: 500 ng/mL

## butyl-poly(3SL-lysine)10-HPP
[2]; 10.0 μg/ml based on HPP, laser 10.0 J/cm^2, decreased from 1×10^5 CFU/ml
  number of Helicobacter pylori colonies at 10.0 μg/ml: 3×10^3 CFU/ml
[2]
  concentration at which colonies hardly appear / did not appear / Helicobacter pylori no longer grows: ≥ 25000 ng/mL

## butyl-poly(3SL-lysine)10-PPIX
[2]
  concentration at which colonies hardly appear / did not appear / Helicobacter pylori no longer grows: 10000 ng/mL
  concentration from which the number of Helicobacter pylori colonies decreases: 5000 ng/mL

## butyl-poly(3SL-lysine)10-SSiPC
[2]; 25.0 μg/ml based on SSiPC, laser 10.0 J/cm^2, decreased from 1×10^5 CFU/ml
  number of Helicobacter pylori colonies at 25.0 μg/ml: 4×10^3 CFU/ml
[2]
  concentration at which colonies hardly appear / did not appear / Helicobacter pylori no longer grows: 50000 ng/mL

## butyl-poly(6SL-lysine)10-Pheoa
[3]; SS1 strain 1×10^6 CFU/ml, 1 μg/ml based on pheophorbide a, 37° C., 2 hours
  interaction with Helicobacter pylori (Cy5 fluorescence of pheophorbide a coinciding with SYTO 9): fluorescence of Cy5 (purple) of pheophorbide a of HSP did not appear
[3]; SS1 strain, total 10 J/cm^2, 50 mW, Laser (+) for 3SL-LRHSP, Laser(+) and Laser(−) for the controls
  inactivation: propidium iodide (Red) fluorescence, cell membrane damage: propidium iodide (Red) fluorescence was not confirmed

## chlorin e6 [Ce6, reference compound]
[2]
  colony result value compared to the NC group at 50.0 μg/ml: more than half

## pheophorbide a [reference compound]
[4]
  laser irradiation dose from which cytotoxicity appeared: 0.8 J/cm^2
[5]
  cellular uptake: pheophorbide a fluorescence intensity compared with the control: 7×10^2
[2]; 50.0 μg/ml based on Pheoa, same amount of laser (10.0 J/cm^2)
  number of Helicobacter pylori colonies at 50.0 μg/ml: 9×10^2 CFU/ml
[2]
  colony result value compared to the NC group at 50.0 μg/ml: slightly less than half

## succinylated silicon phthalocyanine [SSiPC, reference compound]
[2]
  colony result value compared to the NC group at 50.0 μg/ml: more than half
